Test results from ChEMBL document CHEMBL3871290, “3-Cyano-6-(5-methyl-3-pyrazoloamino) pyridines (Part 2): A dual inhibitor of Aurora kinase and tubulin polymerization” (Bioorg Med Chem Lett, 2016).

Columns and labels:
Details in all cases: Homo sapiens
[1] = substrate: Cc1ccc(OCCNc2nc(Nc3cc(C)[nH]n3)cc(C)c2C#N)cn1
Description: Activity at Aurora 1 kinase (unknown origin)

[2] = substrate: Cc1ccc(OCCNc2nc(Nc3cc(C)[nH]n3)cc(C)c2C#N)cn1; remark: listed apart in the source
Description: Activity at Aurora 2 kinase (unknown origin)

[3] = substrate: Cc1ccc(OCCNc2nc(Nc3cc(C)[nH]n3)cc(C)c2C#N)cn1; remark: listed apart in the source
Description: Activity at LYN (unknown origin)

B1: Aurora kinase B (Homo sapiens), Q96GD4 (protein)
chain: MAQKENSYPWPYGRQTAPSGLSTLPQRVLRKEPVTPSALVLMSRSNVQPTAAPGQKVMENSSGTPDILTRHFTIDDFEIGRPLGKGKFGNVYLAREKKSHFIVALKVLFKSQIEKEGVEHQLRREIEIQAHLHHPNILRLYNYFYDRRRIYLILEYAPRGELYKELQKSCTFDEQRTATIMEELADALMYCHGKKVIHRDIKPENLLLGLKGELKIADFGWSVHAPSLRRKTMCGTLDYLPPEMIEGRMHNEKVDLWCIGVLCYELLVGNPPFESASHNETYRRIVKVDLKFPASVPMGAQDLISKLLRHNPSERLPLAQVSAHPWVRANSRRVLPPSALQSVA
B1 was tested. Which Km [1] did it give?
The Km was 30 µM.

B2: Aurora kinase A (Homo sapiens), O14965 (protein)
chain: MDRSKENCISGPVKATAPVGGPKRVLVTQQFPCQNPLPVNSGQAQRVLCPSNSSQRIPLQAQKLVSSHKPVQNQKQKQLQATSVPHPVSRPLNNTQKSKQPLPSAPENNPEEELASKQKNEESKKRQWALEDFEIGRPLGKGKFGNVYLAREKQSKFILALKVLFKAQLEKAGVEHQLRREVEIQSHLRHPNILRLYGYFHDATRVYLILEYAPLGTVYRELQKLSKFDEQRTATYITELANALSYCHSKRVIHRDIKPENLLLGSAGELKIADFGWSVHAPSSRRTTLCGTLDYLPPEMIEGRMHDEKVDLWSLGVLCYEFLVGKPPFEANTYQETYKRISRVEFTFPDFVTEGARDLISRLLKHNPSQRPMLREVLEHPWITANSSKPSNCQNKESASKQS
Which Km [2] does the source give for B2 here?
Its Km is 28 µM.

B3: Tyrosine-protein kinase Lyn (Homo sapiens), P07948 (protein)
chain: MGCIKSKGKDSLSDDGVDLKTQPVRNTERTIYVRDPTSNKQQRPVPESQLLPGQRFQTKDPEEQGDIVVALYPYDGIHPDDLSFKKGEKMKVLEEHGEWWKAKSLLTKKEGFIPSNYVAKLNTLETEEWFFKDITRKDAERQLLAPGNSAGAFLIRESETLKGSFSLSVRDFDPVHGDVIKHYKIRSLDNGGYYISPRITFPCISDMIKHYQKQADGLCRRLEKACISPKPQKPWDKDAWEIPRESIKLVKRLGAGQFGEVWMGYYNNSTKVAVKTLKPGTMSVQAFLEEANLMKTLQHDKLVRLYAVVTREEPIYIITEYMAKGSLLDFLKSDEGGKVLLPKLIDFSAQIAEGMAYIERKNYIHRDLRAANVLVSESLMCKIADFGLARVIEDNEYTAREGAKFPIKWTAPEAINFGCFTIKSDVWSFGILLYEIVTYGKIPYPGRTNADVMTALSQGYRMPRVENCPDELYDIMKMCWKEKAEERPTFDYLQSVLDDFYTATEGQYQQQP
Which Km [3] does the source give for B3 here?
The Km was 1000 µM.
